Results on 22 sequences are retold here after the DeepSol protein solubility set.

This data set is described as follows: soluble on expression in E. coli; label from the status in PepcDB or PDB records.
As for “MNPDEPNFIWKDLNAVRDMGCIIENELSEVLPNKRYETYSIIGRSGEFNETFNDYEPFDYEIEDVTIPYENLAAVKRWLTGKSKLITHNDEDKYLDAICTMSKPTSFKNEWGVFYTFNVEFRCQPFKRKVNEQPKVIKTKSIEITDHGDEIAFPYIEINSKGGDITLNIGSNSLTILRTQSGIVTIDTEKGKAIQEGNPLFTRGSWIKTNPGQNKLNISGNFIEAKFWNRSAYL”, the “soluble on expression in E. coli” value is “not soluble”.
The value for “MSLKTLIKNVHILTMDEQFSEIKAGYLVIEEDTIVELAPMTTLDEKRMAANQVIDGQNGILMPGMINTHTHVGMIPFRSLGDDVPDRLRRFLFPLEQFMTKELVGCSSDYAIAEMLLSGITSFCDMYYFEDEIAKSCEKMSVRALLGETIIDMPTCDSPEPSGGLFYAETFIRKWQGHPLITPMLAPHAPNTNSPEVLAKIIELSRQYQVPVTMHVAEMTYEMAEFEKAYQKTPIAFLEELGYLSEPFILAHCILATDEDLASLAATNGKARVAHCIGANTKSAKGVAPIKQMLDQGIIVGLGTDGPSSGNTLDLFTQMRMVANFHKTAHQDRSLFPAKEIVYLATMGGAKTLGLAEQVGSLEVDKKADITLIETQSVNMFPIFDAYSALVYSANASNVEAVWVNGQQLVANKELQQANLKEIKEKLYQAMNTFVKEAKKRAALEGHHHHHH” was “soluble”.
With “MSTGGFQKDQAINILLIGTDKRTGSGNDGYGDKGSAGHADTTLLLHVSKDRSNATALSIPRDLIVDVPDCPTTQEDGSTKVIPGSTGVRFNTSLGQSGRTPSCTMRTVTELTGVTPDNFMVADFNAVKTLSSAVGGVEVCLAKDIDDPDSHLNLPAGKHTVEGEEALAFVRTRHSVGFGGDLSRIELQQQFLSSLMRKLKSNDTLTSPTKMVKLAEAGTDALTVDAKLKSIGKLKDLGLELGKLDTKNLTFATVPVKDNPAEKTPVTVVLKDGPAQQVFDMVKNDVSFTEVKKQEKEKKDKEEAAVAARLEGKKSEPSEVRVRVLNGGASSGSAGRELTYLQNEAGVTKSENAGNAPADIAKTTLEYAPDQADQARALAEILGLTGAAMKPGESVTNSQGLPAMTLTLGKDFKGAGVKLDATSAKAPEDLQKSTADKVECAKLEHHHHHH”, the “soluble on expression in E. coli” value is recorded as “soluble”.
Consider “VRWIVDGMNVIGSRPDGWWRDRHRAMVMLVERLEGWAITKARGDDVTVVFERPPSTAIPSSVVEVAHAPKAAANSADDEIVRLVRSGAQPQEIRVVTSDKALTDRVRDLGAAVYPAERFRDLIDPRGSNAARRTQ”, for which the “soluble on expression in E. coli” value is recorded as “soluble”.
With “MVKVEDAIVARLESHGYHFEILVDPDAIERIRKGNIDIENDLAFPEVYKDVRKGEKASDDSLKEAFKTTVIAQVAIEIVKKGQIQLTTEQRREMYDERRKQIVNLIAREGINPQTNTPHTPYRISQAMDEAKVKIDPLKPAEDQVQNVLKAIMPIIPIRLEKAKIAVKLIGDAYGKLYGELAKSGYM”, the “soluble on expression in E. coli” value is “not soluble”.
For “MCIAIPGRIERIDYPIAIVDFKGLKKEVRIDLLENPQIGDYVLVHVGMAIQKVDEEEAKKTWELLERVADETGNQAF”, the “soluble on expression in E. coli” value was “not soluble”.
As to “MGSDKIHHHHHHMSFDNLCKLLSEKHPATFASWVLGTPQTSVKVLKTELSIEPIRADYVTFLQLQGRILHLEFQTKLESTPPLPLRMLDYWVRLYRLYRLPITQVVVLLLPPAPGTVIETVFCVETTRHEYRVIRLWEENPELFLNEPALLPLAPLAATTQPQALLQQVVGKVNQLEPRQRPEISAYTQILAGLKYNQDLIRQLFREGMMRESVIYQEILAEGEQLGELRGRKAEGQLLILRQLTRRVGELPQEMLNRIETLSLEQLENLGEALLDFQAIADLEAWFGTLDIGVKMT”, the “soluble on expression in E. coli” value is on record as “not soluble”.
To “MGSDKIHHHHHHMQRFKKWFLSIIKNFKQHEKIKIDLNNTKIDLNNTKIDLNNTKIDLNNTKIDLNNTKIDLNNTKIDLNNTKIDLNNTKIDLNNTKIELSQLKKEHYKVLDFHLRKITPQAFLEIVEIHLAESCNLNCFGCNHFSQIAEKEFPDIEIFKKDMQRLSEISKGIVGTFRLMGGEPLLNPNCIQFFDITRYFFPKSAIWLVTNGILLDKQNEDFWNSCQRNKMQIRPTKYPIKINWDLIKDKCDQYDIPLIFFNNGELEKTSWKFSLDPSGNCDNYHSFTNCSMANHCVQFKDGKLFTCTFPAHVQHFNKKYGNHFEVCEFDFIDIYKAKDYQEILFFLSKPIPFCRYCKVSQWAEIGKWRSSNKTKHEYLI” belongs “not soluble”; to “SNAMTTKRVKKMGKEEMKEMFDLVIYAFNQEPTAERQERFEKLLSHTQSYGFLIDEQLTSQVMATPFQVNFHGVRYPMAGIGYVASYPEYRGEGGISAIMKEMLADLAKQKVALSYLAPFSYPFYRQYGYEQTFEQAEYTIKTEDWPRVKRVPGTIKRVSWADGKEVIKDVYLENQRAHSGGVIRETWWLDYTLNRASKPNNQAIYYSSEGKAEGYVIYRIAAGTFEIVEWNYLTNTAFKALAGFIGSHSGSVQSFHWINGFAGKDLNDLMPTPAASVKILPYMMARIVELQTFLEKYPFQSGEKETYSLEIEDSYGPWNEGIWTITIDEQGKATVTKGAAEKEGTAALKADIQTWTQLFLGYRSAETLSFYERLQGDATIAQRLGQRLVKGMPILEDYF”, “soluble”; to “MSLVIVMYSIKMRASKNGKHISGAERIVNKDEIEETVKELVRRALTHENGTPDFINIKIEEIKEEITYINHLPIKTIHCKDKEEARETAKKILRNEGIPDSVIDYAYEIIDKGGMRGAAILNLKGERLEPDKERGVRVKNIDTTKELKEKILKENLGTERTVDAIAIASKVIHLGVIAELCTSDNKSYTTGYVATKKGYFRITNLKKEGESGGRVFFVKDDVDIEDLINKLENKPEGHHHHHH”, “soluble”.
On to “MQEKQHIHIGEIIQRLSGRKLPQPLIRLLERLIHQDEINDILDRYGHLEGVDFMTALVGYFHVDIDWNGADRLPSDKRCLFVSNHPLGGLDGICLSHLIGSHYDSDVRYIVNDILFHLRPLRKIFVPVNTRGRQKRESIDRLQEALESDLPVITFPAGFCSRLIEGKVQDTPWKKSFVRQAYASKRDIVPLFFDGLNSKRFYRIERLRQLLGLKFNIGMALLPDEMFRSKGRHFRVFAGRPIPWQSLASAPRDTAEQALHIRSLVYDLSPSALKK”, for which the “soluble on expression in E. coli” value is reported as “not soluble”.
For “MSLTALSSVDFCLPEHITPEIFLRDYWQKKPLVIRNGLPEIVGQFEPQDIIELAQNEDVTARLVKTFSDDDWKVFFSPLSEKDFQKLPEKWSVLVQNLEQWSPELGQLWNKFGFIPQWQRDDIMVSYAPKGGSVGKHYDEYDVFLVQGYGHRRWQVGKWCDASTEFKPNQSIRIFDDMGELVIDEVMNPGDILYIPARMAHYGVAEDDCLTFSFGLRYPNLSNLIDGISKGFCHQDPDLNLSEFDLPLRLSQSEQRTGKLADENIQAMKQLLLDKLAHSEAFDTLFKQAVASAVSSRRYELLVSDEMCDPDEVRSILEEDGAFLSQDNNCKLLYTENPLRIYANGEWLDELNIIESEVLKRLSDGESLDWAFLSDLANKTEDPETSMDLLLDSICNWVDDGWALIEEGGSHHHHHH”, the “soluble on expression in E. coli” value is recorded as “soluble”.
As to “MARHVFLPPLSVHRHRPHPLGVCGFESFQTLHPRKRAARPDSRPLYELCRHTCLQDFPKIRHPLCRHGTQQHHYARFGAPAPMAAYEKCGGTRRRTSRRQPPFRTRPATQIRLRMAVPPPTYWAEYSTDRLNKEKKNNKPHFVFCTVSHLRRLKGHDVLLTAFARALAQCPQLRLNIGGSGQEEQRLKQQAADLGITHAVTFLGALQPEAVLDLMRNSDAFVLASRTETFGVVYIEALSQGLPVIATRCGGAESIVSDGNGYLVPVDDDDALADALIKMCEHHSDFEPARLRENCLNEFGENAVIGRLIGIFRQAIAEYGKKIPVKYSGLTKIRTRRRSRRQYK”, the “soluble on expression in E. coli” value is “not soluble”.
Take “MGSDKIHHHHHHLISTANITMQFGPEPLFENISAQFGHGNRYGLIGANGCGKSTFMKILSGALAPTSGNVSITPGLKVGNLSQDQFAFEQHSVIDTVIMGDMKLWKVKQEREAIYAKPDMTDEDGMRVGDLESEFAEMDGYSAESRAGEILIEAGIDESMHFGLMQQVPPGKKLRVLLAQALFANPDILLLDEPTNNLDIHTISWLETELNKRKCTMIIISHDRHFLNAVCTHMADIDYGELRIYPGNYEFFLAQSSLIREQLLAGNAKKSAEIDELQDFVNRFGANASKAKQASSRAKKMDKIKLDDVKSSSRITPSIRFEAGKKMHRQALILEGLGHGFDEGMLFTGGDLILEAGAKLAIIGENGVGKTTLLRCLVNELSHKEGVVKWSENAAVGYCPQDSSADFDNDLTLMDWMSQWRLPKHNDLMVRGMLGRLLFTEDDANKKARNCSGGEKNRLLFGKLMMQDVNVLIMDEPTNHMDMEAIEALNNALKDFEGTLIFVSHDREFVSSLATRVIDIKDKKLINFQGSFDEYLASQSEAQKIA”: the “soluble on expression in E. coli” value is recorded as “not soluble”.
Regarding “AWQARGLGTARLQLVEFSAFVEPPDAVDSYQRHLFVHISQHCPSPGAPPLESVDVRQIYDKFPEKKGGLRELYDRGPPHAFFLVKFWADLNWGPSGEEAGAGGSISSGGFYGVSSQYESLEHMTLTCSSKVCSFGKQVVEKVETERAQLEDGRFVYRLLRSPMCEYLVNFLHKLRQLPERYMMNSVLENFTILQVVTNRDTQELLLCTAYVFEVSTSERGAQHHIYRLVRD”, the “soluble on expression in E. coli” value is “soluble”.
In the case of “MKKWVCTVCGYIYDEDAGDPDNGISPGTKFEELPDDWVCPLCGVGKDQFEKLED”, the “soluble on expression in E. coli” value is reported as “soluble”.
Take “TEFGSELKSFPEVVGKTVDQAREYFTLHYPQYNVYFLPEGSPVTRDLRYNRVRVFYNPGTNVVNHVPHVG”: the “soluble on expression in E. coli” value was “soluble”.
As for “MSTAFAIPLFQFSPKPLHWKKRIAMWKAEIMDIKTTETGSRGEYSATIDGHKAQMTYSRTSPSLIIIDHTGVPDALRGKGVGQALAAHAIDEARKGGWKIIPLCPFFKAQTLRHADWADVIQGLEHHHHHH”, the “soluble on expression in E. coli” value was “soluble”.
For the sequence “MAHHHHHHMLKLQLDATAIEDELKLSANSKSANTVSSKTPRPDKFAAYHTLRLLFVPIWKRYRFHKQMVWATAIVAKHVLLKVHWRRQRRSERATDTFLHVLRIPRTKLRCAAHLLEGQVVRIQRAFRRHRARVQAVVELNYRKVRRDVEEAYWEAVVTQHEAELAVQQRPFSPVPKAVREVFGARAEARARFGSIQRRTSLLSSAGNSSYDTAVPSNELDVYNFHMIGRLPGSLLRFEMTSAVFAQLRRSAARAHLMDDFSETRARRAGMGGFMEHGDIAPTNTAFVRSRGKCRAQLPCFLPESVYAAILNNTCYLTSLMRDDRKLRAHLRQREHHLESY”, the “soluble on expression in E. coli” value is reported as “not soluble”.
For “GSVPATLPQLTPTLVSLLEVIEPEVLYAGYDSSVPDSTWRIMTTLNMLGGRQVIAAVKWAKAIPGFRNLHLDDQMTLLQYSWMYLMAFALGWRSYRQSSANLLCFAPDLIINEQRMTLPGMYDQCKHMLYVSSELHRLQVSYEEYLCMKTLLLLSSVPKDGLKSQELFDEIRMTYIKELGKAIVKREGNSSQNWQRFYQLTKLLDSMHEVVENLLNYCFQTFLDKTMSIEFPEMLAEIITNQIPKYSNGNIKKLLFHQK”, the “soluble on expression in E. coli” value is given as “soluble”.
For “MYKAIIMPVDVFEMELSDKAVRHAEFLAQDDGVIHLLHVLPGSASLSLHRFAADVRRFEEHLQHEAEERLQTMVSHFTIDPSRIKQHVRFGSVRDEVNELAEELGADVVVIGSRNPSISTHLLGSNASSVIRHANLPVLVVR”, the “soluble on expression in E. coli” value is given as “not soluble”.
To “MLVAPFASQLPFVEETLHSSYQALQWGKNIFAIAHKTLSARLLNTVFPTEERTQPLSPELQAWLKERYEALLQQDWQDAAAGFYPATLLFDAPWEEFLRFYPLLLLDLPQMWQRARSRQFQEFAHNVRLEDYPQYYRQNFHYQTDGYLSDTSANLYDIQVELLFGGTADAMRRRVIAPIAQQVVAHPPTPPLRILDVACGTGRTLKQLRYAFPGAVLFGLDLSPAYLRKANALLATQTGALPQLIQGNAESLPYVDSYFSAITCVFLFHELPAPVRQNVIHECARVLQPGGIFVICDSIQSLDSPEQRPMMENFANLFHEPFYRNYIEDDLNLRLEKAGLVVKEVQHHFMSKYWVAVKPSLEHHHHHH” belongs “not soluble”.
